Earlier results in PMC11724285.

Test system: NF-κB (subunit not stated)

GAUACUUGAAACUGUAAGGUUGGCGUAUA [NF-κB RNA aptamer (29 nt)]
Kd: 5 nM
